# Measured values reported in IntAct's records for PubMed 28054552.
# B1: Hexokinase-1 (Homo sapiens), P19367 (parent)
# chain: MIAAQLLAYYFTELKDDQVKKIDKYLYAMRLSDETLIDIMTRFRKEMKNGLSRDFNPTATVKMLPTFVRSIPDGSEKGDFIALDLGGSSFRILRVQVNHEKNQNVHMESEVYDTPENIVHGSGSQLFDHVAECLGDFMEKRKIKDKKLPVGFTFSFPCQQSKIDEAILITWTKRFKASGVEGADVVKLLNKAIKKRGDYDANIVAVVNDTVGTMMTCGYDDQHCEVGLIIGTGTNACYMEELRHIDLVEGDEGRMCINTEWGAFGDDGSLEDIRTEFDREIDRGSLNPGKQLFEKMVSGMYLGELVRLILVKMAKEGLLFEGRITPELLTRGKFNTSDVSAIEKNKEGLHNAKEILTRLGVEPSDDDCVSVQHVCTIVSFRSANLVAATLGAILNRLRDNKGTPRLRTTVGVDGSLYKTHPQYSRRFHKTLRRLVPDSDVRFLLSESGSGKGAAMVTAVAYRLAEQHRQIEETLAHFHLTKDMLLEVKKRMRAEMELGLRKQTHNNAVVKMLPSFVRRTPDGTENGDFLALDLGGTNFRVLLVKIRSGKKRTVEMHNKIYAIPIEIMQGTGEELFDHIVSCISDFLDYMGIKGPRMPLGFTFSFPCQQTSLDAGILITWTKGFKATDCVGHDVVTLLRDAIKRREEFDLDVVAVVNDTVGTMMTCAYEEPTCEVGLIVGTGSNACYMEEMKNVEMVEGDQGQMCINMEWGAFGDNGCLDDIRTHYDRLVDEYSLNAGKQRYEKMISGMYLGEIVRNILIDFTKKGFLFRGQISETLKTRGIFETKFLSQIESDRLALLQVRAILQQLGLNSTCDDSILVKTVCGVVSRRAAQLCGAGMAAVVDKIRENRGLDRLNVTVGVDGTLYKLHPHFSRIMHQTVKELSPKCNVSFLLSEDGSGKGAALITAVGVRLRTEASS
# B2: Hexokinase-2 (Homo sapiens), P52789 (parent)
# chain: MIASHLLAYFFTELNHDQVQKVDQYLYHMRLSDETLLEISKRFRKEMEKGLGATTHPTAAVKMLPTFVRSTPDGTEHGEFLALDLGGTNFRVLWVKVTDNGLQKVEMENQIYAIPEDIMRGSGTQLFDHIAECLANFMDKLQIKDKKLPLGFTFSFPCHQTKLDESFLVSWTKGFKSSGVEGRDVVALIRKAIQRRGDFDIDIVAVVNDTVGTMMTCGYDDHNCEIGLIVGTGSNACYMEEMRHIDMVEGDEGRMCINMEWGAFGDDGSLNDIRTEFDQEIDMGSLNPGKQLFEKMISGMYMGELVRLILVKMAKEELLFGGKLSPELLNTGRFETKDISDIEGEKDGIRKAREVLMRLGLDPTQEDCVATHRICQIVSTRSASLCAATLAAVLQRIKENKGEERLRSTIGVDGSVYKKHPHFAKRLHKTVRRLVPGCDVRFLRSEDGSGKGAAMVTAVAYRLADQHRARQKTLEHLQLSHDQLLEVKRRMKVEMERGLSKETHASAPVKMLPTYVCATPDGTEKGDFLALDLGGTNFRVLLVRVRNGKWGGVEMHNKIYAIPQEVMHGTGDELFDHIVQCIADFLEYMGMKGVSLPLGFTFSFPCQQNSLDESILLKWTKGFKASGCEGEDVVTLLKEAIHRREEFDLDVVAVVNDTVGTMMTCGFEDPHCEVGLIVGTGSNACYMEEMRNVELVEGEEGRMCVNMEWGAFGDNGCLDDFRTEFDVAVDELSLNPGKQRFEKMISGMYLGEIVRNILIDFTKRGLLFRGRISERLKTRGIFETKFLSQIESDCLALLQVRAILQHLGLESTCDDSIIVKEVCTVVARRAAQLCGAGMAAVVDRIRENRGLDALKVTVGVDGTLYKLHPHFAKVMHETVKDLAPKCDVSFLQSEDGSGKGAALITAVACRIREAGQR
# Variants of: B1
# Details: with src_mouse Src
row,effect of a mutation on the interaction,Variant
1,with no effect,Y27F
2,disrupting interaction strength,Y732F
3,with no effect,Y417F

# Variants of: B2
# Details: with src_mouse Src
row,effect of a mutation on the interaction,Variant
1,disrupting interaction strength,Y686F
